Assays:
Assay in all cases: cell-based or functional assay
[1] = target: HIV-1 pseudovirus 263-8 (envelope glycoprotein) (HIV-1)
[2] = target: HIV-1 pseudovirus SC05.8C11.2344 (envelope glycoprotein) (HIV-1)
[3] = target: HIV-1 pseudovirus X1193_c1 (envelope glycoprotein) (HIV-1)
[4] = target: HIV-1 pseudovirus Ce1176_A3 (envelope glycoprotein) (HIV-1)
[5] = target: HIV-1 pseudovirus AC10.0.29 (envelope glycoprotein) (HIV-1)
[6] = target: HIV-1 pseudovirus 6952.v1.c20 (envelope glycoprotein) (HIV-1)

B1: MS-113 (antibody)
VH: not shown
VL: DIVLTQSPLSLSVTPGEPASISCKSSHSLIHGDRNNYLAWYVQKPGRSPQLLIYLASSRASGVPDRFSGSGSGKDFTLKISRVETEDVGTYYCMQGRESPWTFGQGTKVDIKRTVAAPSVFIFPPSDEQLKSGTASVVCLLNNFYPREAKVQWKVDNALQSGNSQESVTEQDSKDSTYSLSSTLTLSKADYEKHKVYACEVTHQGLSSPVTKSFNRGEC
With B1 the “neutralization IC50” value [1] was 0.018 µg/mL, the “neutralization IC80” value [1] was 0.052 µg/mL and the “neutralization IC50” value [2] was 0.573 µg/mL. For the same binder, the “neutralization IC80” value [2] was 1.94 µg/mL, the “neutralization IC50” value [3] was 0.098 µg/mL and the “neutralization IC80” value [3] was 0.421 µg/mL. For the same binder, the “neutralization IC50” value [4] was 0.182 µg/mL, the “neutralization IC80” value [4] was 6.05 µg/mL and the “neutralization IC50” value [5] was 0.052 µg/mL. The “neutralization IC80” value [5] was 0.245 µg/mL, the “neutralization IC50” value [6] was 0.351 µg/mL and the “neutralization IC80” value [6] was 5.03 µg/mL.

B2: MS-115 (antibody)
VH: not shown
VL: DIVLTQSPLSLSVTPGESASISCKSSHSLIHGDRNNYLAWYVQKPGRSPQLLIYLASSRASGVPDRFSGSGSGKDFTLKISRVEAEDVGTYYCMQGRESPWTFGQGTKVDIKRTVAAPSVFIFPPSDEQLKSGTASVVCLLNNFYPREAKVQWKVDNALQSGNSQESVTEQDSKDSTYSLSSTLTLSKADYEKHKVYACEVTHQGLSSPVTKSFNRGEC
With B2 the “neutralization IC50” value [1] was 0.013 µg/mL, the “neutralization IC80” value [1] was 0.037 µg/mL and the “neutralization IC50” value [2] was 0.436 µg/mL. For the same binder, the “neutralization IC80” value [2] was 1.51 µg/mL, the “neutralization IC50” value [3] was 0.08 µg/mL and the “neutralization IC80” value [3] was 0.274 µg/mL. The “neutralization IC50” value [4] was 0.18 µg/mL, the “neutralization IC80” value [4] was 6.3 µg/mL and the “neutralization IC50” value [5] was 0.049 µg/mL. For the same binder, the “neutralization IC80” value [5] was 0.249 µg/mL, the “neutralization IC50” value [6] was 0.303 µg/mL and the “neutralization IC80” value [6] was 4.7 µg/mL.

B3: MS-116 (antibody)
VH: not shown
VL: DIVLTQSPHSLSVTPGEPASISCKSSHSLIHGDRNNYLAWYVQKPGRSPQLLIYLASSRASGVPDRFSGSGSGKDFTLKISRVEAEDVGTYYCMQGRESPWTFGQGTKVDIKRTVAAPSVFIFPPSDEQLKSGTASVVCLLNNFYPREAKVQWKVDNALQSGNSQESVTEQDSKDSTYSLSSTLTLSKADYEKHKVYACEVTHQGLSSPVTKSFNRGEC
In the case of B3, the “neutralization IC50” value [1] is reported as 0.011 µg/mL, the “neutralization IC80” value [1] is reported as 0.042 µg/mL and the “neutralization IC50” value [2] is reported as 0.456 µg/mL. For the same binder, the “neutralization IC80” value [2] was 1.62 µg/mL, the “neutralization IC50” value [3] was 0.064 µg/mL and the “neutralization IC80” value [3] was 0.222 µg/mL. The “neutralization IC50” value [4] was 0.145 µg/mL, the “neutralization IC80” value [4] was 3.12 µg/mL and the “neutralization IC50” value [5] was 0.052 µg/mL. The “neutralization IC80” value [5] was 0.258 µg/mL, the “neutralization IC50” value [6] was 0.341 µg/mL and the “neutralization IC80” value [6] was 7.51 µg/mL.

B4: MS-114 (antibody)
VH: not shown
VL: DIVLTQSPLSLSVTPGEPASISCKSSHSLIHGDRNNYLAWYVQKPGRSPQLLIYLASSRASGVPDRFSGSGSDKDFTLKISRVEAEDVGTYYCMQGRESPWTFGQGTKVDIKRTVAAPSVFIFPPSDEQLKSGTASVVCLLNNFYPREAKVQWKVDNALQSGNSQESVTEQDSKDSTYSLSSTLTLSKADYEKHKVYACEVTHQGLSSPVTKSFNRGEC
In the case of B4, the “neutralization IC50” value [1] is reported as 0.018 µg/mL, the “neutralization IC80” value [1] is reported as 0.066 µg/mL and the “neutralization IC50” value [2] is reported as 0.81 µg/mL. The “neutralization IC80” value [2] was 3.86 µg/mL, the “neutralization IC50” value [3] was 0.124 µg/mL and the “neutralization IC80” value [3] was 0.404 µg/mL. The “neutralization IC50” value [4] was 0.139 µg/mL, the “neutralization IC80” value [4] was 7.39 µg/mL and the “neutralization IC50” value [5] was 0.066 µg/mL. For the same binder, the “neutralization IC80” value [5] was 0.313 µg/mL, the “neutralization IC50” value [6] was 0.146 µg/mL and the “neutralization IC80” value [6] was 1.37 µg/mL.

B5: MS-117 (antibody)
VH: not shown
VL: DFVLTQSPLSLSVTPGEPASISCKSSHSLIHGDRNNYLAWYVQKPGRSPQLLIYLASSRASGVPDRFSGSGSGKDFTLKISRVEAEDVGTYYCMQGRESPWTFGQGTKVDIKRTVAAPSVFIFPPSDEQLKSGTASVVCLLNNFYPREAKVQWKVDNALQSGNSQESVTEQDSKDSTYSLSSTLTLSKADYEKHKVYACEVTHQGLSSPVTKSFNRGEC
With B5 the “neutralization IC50” value [1] was 0.01 µg/mL, the “neutralization IC80” value [1] was 0.029 µg/mL and the “neutralization IC50” value [2] was 0.432 µg/mL. The “neutralization IC80” value [2] was 1.48 µg/mL, the “neutralization IC50” value [3] was 0.064 µg/mL and the “neutralization IC80” value [3] was 0.226 µg/mL. The “neutralization IC50” value [4] was 0.113 µg/mL, the “neutralization IC80” value [4] was 2.17 µg/mL and the “neutralization IC50” value [5] was 0.051 µg/mL. The “neutralization IC80” value [5] was 0.252 µg/mL, the “neutralization IC50” value [6] was 0.208 µg/mL and the “neutralization IC80” value [6] was 3.84 µg/mL.

B6: MS-118 (antibody)
VH: not shown
VL: DIVLTQSPLSLSVTPGEPASISCKSSHSLIHGDRNNYLAWYVQKPGRSPQLLIYLASSRASGVPDRFSGSGSGKDFTLKISRVEAEDVGTYYCMQGRESPWTFGQGTKVDIKRTVAAPSVFIFPPSDEQLKSGTASVVCLLNNFYPREAKVQWKVDNALQSGNSQESVTEQDSKDSTYSLSSTLTLSKADYEKHKVYACEVTHQGLSSPVTKSFNRGEC
B6 was tested, and the “neutralization IC50” value [1] was 0.011 µg/mL, the “neutralization IC80” value [1] was 0.039 µg/mL and the “neutralization IC50” value [2] was 0.449 µg/mL. For the same binder, the “neutralization IC80” value [2] was 1.54 µg/mL, the “neutralization IC50” value [3] was 0.085 µg/mL and the “neutralization IC80” value [3] was 0.287 µg/mL. The “neutralization IC50” value [4] was 0.26 µg/mL, the “neutralization IC80” value [4] was 8.12 µg/mL and the “neutralization IC50” value [5] was 0.056 µg/mL. The “neutralization IC80” value [5] was 0.273 µg/mL, the “neutralization IC50” value [6] was 0.392 µg/mL and the “neutralization IC80” value [6] was 12.2 µg/mL.

Reference: patent publication US20220025021A1 (BETH ISRAEL DEACONESS MEDICAL CENTER, published 2022)
